Reference: the supplement of paper PMC9112550, “Optimization of the antimicrobial peptide Bac7 by deep mutational scanning” (BMC Biology, 2022)

The sequences below were run on Escherichia coli TOP10 (assay: shrunken log2 fold change of peptide-encoding DNA abundance (4.5 h post-induction vs induction); higher = less antimicrobial activity (less host growth inhibition)). Conditions: time post-induction: 4.5 h; library: site-saturation at positions 5, 18, 19, 20.
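Also: peptides expressed intracellularly from a pBAD plasmid library in pooled LB shake-flask culture, induced with 0.3% L-arabinose, DNA abundance read by NGS, three biological replicates, DESeq2 with apeglm shrinkage.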

In order of rising “shrunken log2 fold change” value:
1. RRIRIRPPRLPRPRPRPIKFPRP  -0.933
2. RRIRSRPPRLPRPRPRPAIHPRP  -0.912
3. RRIRLRPPRLPRPRPRPHNNPRP  -0.847
4. RRIRVRPPRLPRPRPRPYIYPRP  -0.806
5. RRIRFRPPRLPRPRPRPLMFPRP  -0.695
6. RRIRQRPPRLPRPRPRPNHDPRP  -0.509
7. RRIRCRPPRLPRPRPRPYCSPRP  -0.502
8. RRIRCRPPRLPRPRPRPICMPRP  -0.491
9. RRIRPRPPRLPRPRPRPSMFPRP  -0.437
10. RRIRQRPPRLPRPRPRPHHHPRP  -0.403
11. RRIRMRPPRLPRPRPRPCHDPRP  -0.347
12. RRIRHRPPRLPRPRPRPPSMPRP  -0.343
13. RRIRTRPPRLPRPRPRPQNYPRP  -0.311
14. RRIRCRPPRLPRPRPRPYDTPRP  -0.308
15. RRIRIRPPRLPRPRPRPRTCPRP  -0.282
16. RRIRIRPPRLPRPRPRPQGTPRP  -0.272
17. RRIRPRPPRLPRPRPRPNRDPRP  -0.271
18. RRIRNRPPRLPRPRPRPHKNPRP  -0.237
19. RRIRSRPPRLPRPRPRPNSMPRP  -0.215
20. RRIRFRPPRLPRPRPRPEYLPRP  -0.203
21. RRIRCRPPRLPRPRPRPGKFPRP  -0.188
22. RRIRIRPPRLPRPRPRPVKMPRP  -0.173
23. RRIRHRPPRLPRPRPRPAEHPRP  -0.144
24. RRIRFRPPRLPRPRPRPKNEPRP  -0.137
25. RRIRARPPRLPRPRPRPIVFPRP  -0.0956
26. RRIRVRPPRLPRPRPRPLETPRP  -0.062
27. RRIRDRPPRLPRPRPRPINCPRP  -0.0287
28. RRIRARPPRLPRPRPRPSCLPRP  -0.0189
29. RRIRYRPPRLPRPRPRPYGQPRP  -0.0112
30. RRIRIRPPRLPRPRPRPCGYPRP  -0.01
31. RRIRGRPPRLPRPRPRPMALPRP  -0.0079
32. RRIRIRPPRLPRPRPRPDVHPRP  -0.00757
33. RRIRLRPPRLPRPRPRPHGFPRP  0.000509
34. RRIRDRPPRLPRPRPRPRICPRP  0.00396
35. RRIRDRPPRLPRPRPRPGNHPRP  0.0062
36. RRIRRRPPRLPRPRPRPQIPPRP  0.00964
37. RRIRCRPPRLPRPRPRPNEAPRP  0.00978
38. RRIRLRPPRLPRPRPRPESCPRP  0.0209
39. RRIRLRPPRLPRPRPRPVEKPRP  0.0244
40. RRIRRRPPRLPRPRPRPERIPRP  0.0278
41. RRIRRRPPRLPRPRPRPLTVPRP  0.0344
42. RRIRQRPPRLPRPRPRPKWSPRP  0.0364
43. RRIRMRPPRLPRPRPRPKEKPRP  0.0504
44. RRIRKRPPRLPRPRPRPFLDPRP  0.0893
45. RRIRGRPPRLPRPRPRPQKPPRP  0.0894
46. RRIRWRPPRLPRPRPRPVGRPRP  0.0962
47. RRIRTRPPRLPRPRPRPMQDPRP  0.118
48. RRIRDRPPRLPRPRPRPPNDPRP  0.14
49. RRIRSRPPRLPRPRPRPRHFPRP  0.141
50. RRIRWRPPRLPRPRPRPCVEPRP  0.153
51. RRIRARPPRLPRPRPRPHWYPRP  0.157
52. RRIRKRPPRLPRPRPRPSLVPRP  0.174
53. RRIRNRPPRLPRPRPRPPTTPRP  0.19
54. RRIRVRPPRLPRPRPRPRTHPRP  0.199
55. RRIRQRPPRLPRPRPRPLPVPRP  0.21
56. RRIRPRPPRLPRPRPRPTHLPRP  0.23
57. RRIRRRPPRLPRPRPRPTVHPRP  0.231
58. RRIRFRPPRLPRPRPRPAMHPRP  0.234
59. RRIRRRPPRLPRPRPRPVKPPRP  0.265
60. RRIRMRPPRLPRPRPRPDNTPRP  0.28
61. RRIRERPPRLPRPRPRPAPLPRP  0.324
62. RRIRDRPPRLPRPRPRPDWLPRP  0.34
63. RRIRNRPPRLPRPRPRPPKWPRP  0.411
64. RRIRARPPRLPRPRPRPPCQPRP  0.438
65. RRIRPRPPRLPRPRPRPNFAPRP  0.445
66. RRIRGRPPRLPRPRPRPSTPPRP  0.468
67. RRIRDRPPRLPRPRPRPDINPRP  0.47
68. RRIRGRPPRLPRPRPRPMEEPRP  0.48
69. RRIRKRPPRLPRPRPRPLTTPRP  0.539
70. RRIRLRPPRLPRPRPRPLGWPRP  0.584
71. RRIRMRPPRLPRPRPRPLLQPRP  0.616
72. RRIRHRPPRLPRPRPRPEAPPRP  0.641
73. RRIRKRPPRLPRPRPRPWDFPRP  0.953
74. RRIRGRPPRLPRPRPRPRGAPRP  1.66
75. RRIRGRPPRLPRPRPRPMQQPRP  2.08
